{"source": "patent US6660837B1", "about": "“Modified protein derived from protein kinase N” (Kirin Beer Kabushiki Kaisha, priority 1995, dated 2003)", "key": {"[1]": {"target": "T1, head-rod domain of NFL (Homo sapiens, UniProt P07196)", "T1 construct": "made in house; host or cells: bacteria (bacterially synthesized)", "T1 sequence (P07196 1-349)": "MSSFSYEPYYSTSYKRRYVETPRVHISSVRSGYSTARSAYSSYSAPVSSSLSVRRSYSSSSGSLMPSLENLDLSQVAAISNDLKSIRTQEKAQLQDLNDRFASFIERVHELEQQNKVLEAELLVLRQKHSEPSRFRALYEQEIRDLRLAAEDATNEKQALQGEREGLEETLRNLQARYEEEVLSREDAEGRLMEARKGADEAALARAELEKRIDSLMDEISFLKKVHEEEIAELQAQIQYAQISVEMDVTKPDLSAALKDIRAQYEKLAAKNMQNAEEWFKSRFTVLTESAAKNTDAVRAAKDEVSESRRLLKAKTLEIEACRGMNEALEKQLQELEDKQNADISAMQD", "test": "In vitro binding of in vitro translated PKN to GST-NFL", "conditions": "GST pull-down", "from_the_text": "For in vitro transcription, truncated human PKN was made as follows; Expression vector pPKNN2 for N-terminal region of PKN (the amino acid sequence 1-474 in SEQ ID NO: 1, this region was designated as “PKNN2”) was made by digesting phPKN-H4 (a plasmid containing human PKN cDNA in pBluescript II SK (Mukai, H. & Ono, Y., Biochem. Biophys. Res. Commun. 199, 897-904 (1994)) with Bst EII, and filling in the ends with T4 DNA polymerase, and self-legation. This removed the original amino acid sequences C-terminal downstream of the BstEII site (1425 nucleotides from initiating ATG codon), and a stop codon was created in the plasmid sequence. Fragment coding for the amino acid sequence 614-942 in SEQ ID NO: 1, (This region was designated as “PKNC2”) containing the conserved catalytic domain of human PKN was made by PCR amplification. Expression vector pPKNC2 was made by subcloning this fragment into pRc/CMV (Invitfrogen Corp.). These plasmids were linealized by cutting with XbaI, and CRNA was transcribed using T7 RNA polymerase. For NFL, pBL (Nakagawa, T. et al., J. Cell. Biol. 129, 411-429 (1995)) was linealized by cutting with HindIII, and CRNA was transcribed using T3 RNA polymerase. For in vitro translation, these cRNAs were translated in rabbit reticulocyte lysate (Promega) in the presence of [^35S] methionine. […]"}, "[2]": {"test_system": "head-rod domain of vimentin", "test": "Yeast two-hybrid, PKN N-terminal region with vimentin", "format": "binding", "conditions": "data not shown", "from_the_text": "Specificity of the interaction between PKN and various NFs was investigated by measuring the ability of the two-hybrid constructs, pBTM116(Vojtek, A. B. et al., Cell, 74, 205-214 (1993)) (instead of pGBT9)-PKN and pVP16 (Vojtek, A. B. et al., Cell, 74, 205-214 (1993)) (instead of pGAD10)-NF or in reverse, to support lacZ expression in L40 cells.\nTo determine whether N-terminal region of PKN binds to NFM or NFH as well as NFL, corresponding region to the head-rod domain of NFM or NFH was ligated to pVP16 and lacZ expression was measured in two-hybrid system. The N-terminal region of PKN bound to each head-rod domain of NF subunit (FIG. 11(B)), and also interacted with the corresponding head-rod domain of vimentin, a ubiquitously expressed member of intermediate filament, in two-hybrid system (data not shown)."}}}
{"substance": "N-terminal region of PKN: N-terminal regulatory region of human PKN: 1-540 (PKNN1) in two-hybrid and GST fusions, 1-474 when in vitro translated", "values": [{"measurement": "binding to head-rod domain of NFL in vitro", "setting": "[1]", "value": "bound"}, {"measurement": "interaction with head-rod domain of vimentin in two-hybrid system", "setting": "[2]", "value": "interacted"}]}
